What was measured:
Assay type in all cases: cell-based, human
MCF-10A cells = experiment: flow cytometry for EpCAM/CD49f, ALDH (Aldefluor) and CD24/CD44 after inducible lentiviral microRNA over-expression; conditions: for ALDH-positive CSC population / CD24−CD44+ population: expression of the microRNA in MCF10A cells and several cancer cell lines
Source text: Cells were transduced with pTRIPZ-microRNA-RFP lentiviruses with inducible systems and selected with puromycin, and microRNAs were induced with or without (CONTROL) Doxycycline and analyzed for RFP, EpCAM and CD49f.
(§1) Furthermore, forced over-expression of mir-100 or mir-221 increased the proportion of EpCAM^−CD49f^+ cells in non-transformed MCF-10A cells as well as primary normal human mammary cells isolated from reduction mammoplasty specimens. […] This was followed by an EMT/MET transition in the Aldefluor-positive CSC population. Since TGFβ is a major regulator of EMT, abrogation of this signaling pathway may facilitate MET.
Of interest, it has been recently reported that the mir106b-25 cluster including mir-93 is induced in the early stages of nuclear reprogramming of fibroblasts into IPS cells. This is accompanied by an EMT to MET conversion in these cells which is obligatory for reprogramming to occur.
(§2) A TET on/off inducible system was established to over-express microRNAs in a lentiviral vector tagged with RFP. Utilizing this system, it was shown that forced over-expression of mir-93 increases the proportion of EpCAM^+CD49f^+ and ALDH^+ cells (FIG. 5). […] Furthermore, forced over-expression of mir-100 increased the proportion of EpCAM^−CD49f^+ cells (FIG. 5).

SUM159 cells [1] = experiment: in vitro matrigel invasion assay; conditions: microRNA induced with Doxycycline vs control; serum as attractant
Method: The invasive capability of pTRIPZ-mir-93-RFP cells or pTRIPZ-mir-100-RFP cells with or without (CONTROL) Doxycycline was assessed by matrigel invasion assay. […] were plated in Matrigel and serum was utilized as the attractant.
as §2
Assays were done in triplicate in invasion chambers pre-coated with reduced growth factor matrix from BD Biosciences. Cells were added to the upper chamber in […] of serum-free medium. For the invasion assay, 20,000 cancer cells were seeded on the coated chamber, and the lower chamber was filled with […] of medium (Cambrex) with FBS. After 37 hours of incubation, the cells on the underside of the upper chambers were stained with the blue stain in the Cell Invasion Assay Kit (Chemicon; cat. #ECM550) and counted using light microscopy.

SUM159 cells [2] = experiment: induction of MET and EMT/MET marker expression in the ALDH-positive CSC population after mir-93 induction; conditions: induction of the microRNA in EMT SUM159 cells
Source text: as §1, §2

TGFβR2 = experiment: TGFβ signaling after mir-93 induction; conditions: by targeting TGFβR2; effect seen within twelve hours of induction
Source text: as §1

[3] = forced over-expression of the microRNA
[4] = forced over-expression of the microRNA, MCF-10A and primary normal human mammary cells

B1: mir-100: microRNA (SEQ ID NO:2) over-expressed from a doxycycline-inducible pTRIPZ lentiviral vector tagged with RFP (nucleic acid, listed as Homo sapiens)
chain: CCTGTTGCCACAAACCCGTAGATCCGAACTTGTGGTATTAGTCCGCACAAGCTTGTATCTATAGGTATGTGTCTGTTAGG
- ALDH-positive CSC population (MCF-10A cells): decrease
- CD24−CD44+ population (MCF-10A cells): increase
- ALDH+ CSC population (MCF-10A cells; [3]): decrease
- proportion of CD24−CD44+ CSC cells (MCF-10A cells; [3]): increase
- proportion of EpCAM−CD49f+ cells (MCF-10A cells; [4]): increased
- cell invasion (SUM159 cells [1]): increased cell invasion

B2: mir-221: microRNA (SEQ ID NO:3), forced over-expression in mammary cells (nucleic acid, listed as Homo sapiens)
chain: TGAACATCCAGGTCTGGGGCATGAACCTGGCATACAATGTAGATTTCTGTGTTCGTTAGGCAACAGCTACATTGTCTGCTGGGTTTCAGGCTACCTGGAAACATGTTCTC
- ALDH-positive CSC population (MCF-10A cells): decrease
- CD24−CD44+ population (MCF-10A cells): increase
- proportion of EpCAM−CD49f+ cells (MCF-10A cells; [4]): increased

B3: mir-93: microRNA (SEQ ID NO:1) over-expressed from a doxycycline-inducible pTRIPZ lentiviral vector tagged with RFP (nucleic acid, listed as Homo sapiens)
chain: CTGGGGGCTCCAAAGTGCTGTTCGTGCAGGTAGTGTGATTACCCAACCTACTGCTGAGCTAGCACTTCCCGAGCCCCCGG
- proportion of EpCAM+CD49f+ and ALDH+ cells (MCF-10A cells; forced over-expression of the microRNA (TET inducible lentiviral vector), MCF-10A and primary normal human mammary cells): increases
- MET in the ALDH-positive CSC population (SUM159 cells [2]): induces an MET
- expression of E-Cadherin and Claudin (SUM159 cells [2]; ALDH-positive CSC population): increased expression
- expression of mesenchymal genes (vimentin, N-Cadherin, Twist) (SUM159 cells [2]; ALDH-positive CSC population): down-regulation
- cell invasion (SUM159 cells [1]): decreased cell invasion
- TGFβ signaling (TGFβR2): inhibits TGFβ signaling
